Experimental data published in patent US6312690, “Monoclonal recombinant anti-rhesus D (D7C2) antibody” (Institut Pasteur, dated 2001).
Residue numbers refer to the chain shown, from its start.

T1: Rhesus D antigen (human, UniProt Q02161)
T1 sequence: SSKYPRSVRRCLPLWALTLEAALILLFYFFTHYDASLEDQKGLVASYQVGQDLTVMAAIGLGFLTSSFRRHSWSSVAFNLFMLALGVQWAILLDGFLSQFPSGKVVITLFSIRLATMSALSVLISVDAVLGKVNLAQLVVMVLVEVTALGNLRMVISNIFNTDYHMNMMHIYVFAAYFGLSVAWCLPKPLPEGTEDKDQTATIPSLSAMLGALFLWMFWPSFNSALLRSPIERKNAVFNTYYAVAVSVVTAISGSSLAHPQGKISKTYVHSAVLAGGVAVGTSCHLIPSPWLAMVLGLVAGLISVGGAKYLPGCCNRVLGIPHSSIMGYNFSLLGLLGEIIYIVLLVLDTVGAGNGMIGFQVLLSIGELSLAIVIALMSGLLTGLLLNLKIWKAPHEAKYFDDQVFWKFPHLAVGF

B1: r-IgG-D7C2 recombinant monoclonal antibody (antibody, V domains shown)
VH: QVQLEQWGAGLLKPSETLSLTCTVYGGSFSGYYWSWIRQPPGKGLEWIGEINHSGSTNYNPSLKSRVTISVDTSKNQFSLKLNSVTAADTAVYYCARAPEYKWKYHGDWFDPWGQGTTVTVSS
VL: DIELTQDPAVSVALGQTVRITCQGDSLRTYYASWYQQKPGQAPVLVIYGKNNRPSGIPDRFSGSSSGNTASLTITGAQAEDEADYFCNSGGKVFGGGTKLTVLG
B2: IgM-D7C2 human parental monoclonal antibody (antibody, V domains shown)
VH: B1 VH with E5Q
VL: B1 VL with D1Q, I2S, E3V

Legend:
Rhesus D antigen [1] = molecular target: T1, Rhesus D antigen
Rhesus D antigen [2] = molecular target: T1, Rhesus D antigen; test: agglutination titre on a pool of papain-treated R1/r red blood cells, one hour at 37° C.
Rhesus D antigen [3] = molecular target: T1, Rhesus D antigen; test: agglutination of red blood cells

Molecule	% specific lysis (ADCC test, 51Cr release) (% specific lysis) (Rhesus D antigen [1])	titre (titre (1/x dilution)) (Rhesus D antigen [2])	binding result (Rhesus D antigen [3])
"irrelevant" recombinant antibody (IgG1, κ) directed against a protein other than the Rhesus antigen	0		
B1	93.3	512	
B2			binds
